This is an account of results in the supplement of paper PMC10126150.

± gives the standard deviation of the averaged measurements.
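Note: ATP exposure 15 min at 22 °C before imaging.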

The subject of this data set is ATP. The experiment in a line: switch fluorescence ratio, 500 uM ATP over buffer (Cy3 cluster intensity, sum of 5 cycles each) (fold (ratio)); higher = stronger signal-on switching upon ATP binding; sequences stand for … in TCGTCGGCAGCGTCAGATGTGTATAAGAGACAGTTTTTTTTTTTTTTTTTTTTTTTTT…TC. As to conditions: aptamer strand: ATP DNA aptamer (quencher-CACCTGGGGGAGTATTGCGGAGGAAGG + anchor), 100 nM annealed; ATP concentration: 500 uM. A digest of the protocol: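 Five buffer/ATP imaging cycles were run on Cy3-labelled switching-strand clusters on a modified Illumina MiSeq flow-cell, with NaOH stripping and re-annealing between cycles. In each cycle, clusters annealed to 100 nM quencher-labelled ATP aptamer were imaged in selection buffer, then after 15 min with 500 uM ATP at 22 °C. Per cluster, the fluorescence ratio is summed target-cycle over summed buffer-cycle Cy3 intensity, averaged per switch-domain sequence. Only clusters within 100-1000 RFU were kept.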
TCAGAGATGA: the switch fluorescence ratio worked out at 0.95 ± 0.026.
The figure for AATTCCGGCG is 1.12 ± 0.098; for TTCGTTCTTG it is 0.9641 ± 0.0076.
For GGTTTGGTG the value was 1.006 ± 0.0058; for TTAAGGGGGT, 1.03 ± 0.08.
For AAGCTCGCCG the value was 0.981 ± 0.06; for GAAGTGGCTT, 0.9801 ± 0.0014.
Consider AGACTAGTTT, for which the switch fluorescence ratio was 1.02 ± 0.015.
On to TAGTATATTT, for which the switch fluorescence ratio worked out at 0.954 ± 0.018.
The figure for AATTAATTTT is 0.995 ± 0.038; for TTCTCAGCAA it is 2.43 ± 0.64.
For the sequence TCTGTTTTAT, the switch fluorescence ratio was determined as 0.976 ± 0.017.
In the case of ATGGCGAGGT, the switch fluorescence ratio came out at 1.01 ± 0.059.
Turning to GGTTCAGGCT, the switch fluorescence ratio stood at 0.977 ± 0.025.
The figure for CGGGGAGGTA is 0.9803 ± 0.0049.
For CTATGTATTT the value was 1.002 ± 0.0011; for CCGGGTAATG, 1.27 ± 0.028.
Turning to GAGTATCTTT, the switch fluorescence ratio came out at 0.998 ± 0.018.
The figure for AACTTGGCTT is 0.969 ± 0.035; for TAATAGTGGC it is 1.06 ± 0.068; for GTAAGAATGG it is 1.03 ± 0.03.
With CACAGGCCCA, the switch fluorescence ratio worked out at 1.04 ± 0.056.
On to AAGGTCAAGC, for which the switch fluorescence ratio amounted to 1 ± 0.063.
In the case of GCTTGCAGTG, the switch fluorescence ratio came out at 0.995 ± 0.033.
The figure for CAATTGCAAT is 1.02 ± 0.02; for GAATGCAAAG it is 1.03 ± 0.041; for GGGATCAGTG it is 0.995 ± 0.03.
As to TTATCGGCGC, the switch fluorescence ratio came out at 0.999 ± 0.014.
In the case of TAGGGGCTG, the switch fluorescence ratio amounted to 1.01 ± 0.015.
On to CGTTTAATAA, for which the switch fluorescence ratio was 1.008 ± 0.0091.
The figure for ATAAGTTAAA is 1.07 ± 0.12; for CGTTGTATCT it is 1 ± 0.035; for TCCAGGAGTG it is 1.15 ± 0.019.
Regarding CTGTGCGACA, the switch fluorescence ratio was found to be 1.06 ± 0.053.
The figure for CCCAATTTGC is 1.32 ± 0.022; for GACTAGTTGG it is 0.983 ± 0.025; for TTTAACGCCA it is 1.082 ± 0.0028.
For GCTGTAAGGC the value was 1.01 ± 0.039.
The figure for TTTGCCGGGT is 0.998 ± 0.046; for ATATTATTAA it is 0.975 ± 0.014.
Turning to GGATCTTTAT, the switch fluorescence ratio is 0.9932 ± 0.0096.
In the case of TAATAGTAGT, the switch fluorescence ratio came to 0.997 ± 0.022.
For TGACTTCGCT the value was 1.2 ± 0.18; for AAGTTACCTG, 1.087 ± 0.0019; for ATGAAAAGGT, 0.976 ± 0.013.
With CCATATGGGG, the switch fluorescence ratio came to 1.01 ± 0.019.
The figure for TTCGTTAAGC is 1.07 ± 0.1; for ATATTGAAAT it is 1.01 ± 0.033.
In the case of TCCTGCGGGG, the switch fluorescence ratio came out at 1.12 ± 0.12.
Take CCAGACGGTC: the switch fluorescence ratio was 1.04 ± 0.085.
The figure for GGAAGGAGAG is 0.986 ± 0.018; for TACGTATTCC it is 1.171 ± 0.011; for GTTGTAGCGG it is 1 ± 0.029.
The figure for ATGAGGTGCG is 0.972 ± 0.035; for ATCAAATATG it is 1.01 ± 0.008.
As for TGGGAAAGTC, the switch fluorescence ratio worked out at 0.993 ± 0.026.
Turning to ATCCTTTCAG, the switch fluorescence ratio was 0.995 ± 0.016.
For GGGGTACGCA the value was 1.02 ± 0.015.
For AAGGATGAGG the value was 0.987 ± 0.021.
In the case of AAGCGGGAGG, the switch fluorescence ratio is 1.02 ± 0.011.
The figure for TAATACTGAA is 1.01 ± 0.029; for CGGGTGTAGG it is 1.02 ± 0.062; for ATGATGGGGC it is 0.9536 ± 0.0011.
The figure for GGAATCCGTT is 1.027 ± 0.0025; for TGTTTTGGGG it is 0.998 ± 0.035; for TGGTGGGGAG it is 1.01 ± 0.045.
For ATATGTATCA the value was 1.06 ± 0.033; for TAAAGGGGCA, 1 ± 0.028; for GGGTTGGGGC, 0.999 ± 0.049.
On to TGACTATTAA, for which the switch fluorescence ratio turned out to be 0.9845 ± 0.0022.
The figure for TGCAAGCGGG is 0.985 ± 0.027; for AGAGGGCTTG it is 0.997 ± 0.018.
With GCGCTACTAG, the switch fluorescence ratio worked out at 1.02 ± 0.021.
For GGAGACGGTT the value was 1 ± 0.051.
The figure for ATCGTCCCTT is 0.986 ± 0.022; for AGGGTGCTGT it is 1.02 ± 0.016; for CTATAATGTT it is 0.9949 ± 0.0059.
For GATGGATGGA the value was 1.05 ± 0.026.
Take CACTCCTGTG: the switch fluorescence ratio stood at 1.01 ± 0.04.
